Assay in all cases: cell-based or functional assay
The target in assay [1] is type A insulin receptor, P06213.
For assay [2], the target named is type B insulin receptor, P06213.
In a further assay the target is type A insulin receptor (UniProt P06213).
Assay [3] concerns the target human IGF-1 receptor (human) (UniProt P08069).
In a further assay the target is type B insulin receptor (UniProt P06213).

Where a chain is given by its changes, count along the chain named. Square brackets hold non-standard residues; d marks the D form. Primed or numbered codes have the meaning given here. Ends that are not written are not given here. PEG4″ = 4-unit polyethylene glycol spacer; PEG8″ = 8-unit polyethylene glycol spacer

B1: MIU-57: B1-PEG20K MIU-35 (ligand)
chain: {PEG 20 kDa}-GPEHLCGAHLVDALYLVCGDRGFYGYGSSSRRAPQTGIVDECCHRSCDLRRLENYCN
modifications: ends and bridges not checked
In assay [1], B1 returned a % (potency at the receptor, assay not named) of 4.5%; a % Insulin Activity (in vitro, assay not named) of 3.1%; a Phosphorylation (EC50), % IR-A of 4.5%. In assay [2], this molecule returned a % (potency at the receptor, assay not named) of 1.1%; a % Insulin Activity (in vitro, assay not named) of 1.1%; a Phosphorylation (EC50), % IR-B of 1.1%.

B2: di-10K-TC: B1,A14-10K B^1(H5,10Y16L17R29)29:A^1(H8K14N18,21) (ligand)
chain 1: {PEG 10 kDa}-GPEHLCGAHLVDALYLVCGDRGFYFNKR
chain 2: GIVDECCHRSCDLK(PEG 10 kDa)RLENYCN
modifications: ends and bridges not checked
Turning to B2, the % activity in vitro in assay [1] is 6.4%; in assay [2], 2.1%.

On to GPEHLCGAHLVDALYLVCGDRGFYFNKKGIVDECCHRSCDLRRLENYCN (ligand) [DP3(SC): B^1(H5,10Y16L17K29)29-A^1(H8,N18,21)], for which the % activity in vitro in assay [1] is 0.03%.

Turning to GPEHLCGAHLVDALYLVCGDRGFYFNKKGIVDECCHRSCDLRRLENYCN (ligand) [MIU-77 mono-20K-SC: B1-20K B^1(H5,10Y16L17K29)29-A^1(H8N18,21)], the % activity in vitro with type A insulin receptor amounted to 0.1%.

B3: GE5W-B^1(A5H10Y16L17)25-C^1-A^1(H8N18N21) (ligand)
chain: GEEEEEWGPEALCGAHLVDALYLVCGDRGFYGYGSSSRRAPQTGIVDECCHRSCDLRRLENYCN
In the case of B3, the % (potency at the receptor, assay not named) in assay [3] came to 0.3%; with type A insulin receptor it was 8.6%; with type B insulin receptor, 2.3%.

B4: GE5W-B^1(H5,10Y16L17)25-C^1-A^1(A1H8N18,21) (ligand)
chain: B3 chain with A11H, G44A
As to B4, the % (potency at the receptor, assay not named) in assay [1] worked out at 2.1%; in assay [2], 0.7%.

Ac-GPEHLCGAELVDALYLVCGDRGFY[PEG8″]K(PEG 20 kDa)[PEG4″]GIVDECCFRSCDLRRLENYCN (ligand, cysteine pairing not given here) [MIU-56: C8-PEG20K B^1(H5,Y16,L17)25-PEG8-K-PEG4-A^1(N18,N21)]: in assay [1], the % Insulin Activity (in vitro, assay not named) is 14.8% and the Phosphorylation (EC50), % IR-A was found to be 14.8%. For the same molecule, the Phosphorylation (EC50), % IR-B in assay [2] turned out to be 2%.

B5: MIU-35: B^1(H5,10Y16L17)25-C^1-A^1(H8N18,21) (ligand)
chain: GPEHLCGAHLVDALYLVCGDRGFYGYGSSSRRAPQTGIVDECCHRSCDLRRLENYCN
For B5, the % (potency at the receptor, assay not named) in assay [3] turned out to be 3.2%; with type A insulin receptor it was 61.4%; with type B insulin receptor, 17.4%. The % Insulin Activity (in vitro, assay not named) turned out to be 3.2% in assay [3], 61.4% with type A insulin receptor and 17.4% in the assay with type B insulin receptor.

B6: B^1(H5,10Y16L17)25-C^1-A^1(T8N18,21) (ligand)
chain: B5 chain with H44T
In the case of B6, the results for the % (potency at the receptor, assay not named) in assay [1] and in assay [2] were 20.4% and 8.4%, respectively.

B7: B^1(A5H10Y16L17)25-C^1-A^1(H8N18N21) (ligand)
chain: B5 chain with H4A
Take B7: the % (potency at the receptor, assay not named) in assay [3] was 2.5%; with type B insulin receptor it was 5.7%.

B8: B^1(H5,10Y16L17A24)25-C^1-A^1(H8N18,N21) (ligand)
chain: B5 chain with F23A
In the case of B8, the % (potency at the receptor, assay not named) in assay [3] worked out at 0.3%; with type A insulin receptor, 0.1%; in the assay with type B insulin receptor it was 0.4%.

B9: DP3(TC): B^1(H5,10Y16L17K29)29:A^1(H8,N18,21) (ligand)
chain 1: GPEHLCGAHLVDALYLVCGDRGFYFNKK
chain 2: GIVDECCHRSCDLRRLENYCN
For B9, the % activity in vitro was determined as 160% in assay [1] and 33.1% in assay [2].

B10: MIU-43 DP8Mut3: B^1(H5,10Y16L17R29)30-C^1des9-12-A^1(H8,N18,21) (ligand)
chain: GPEHLCGAHLVDALYLVCGDRGFYFNKRTGYGSSSRRGIVDECCHRSCDLRRLENYCN
Regarding B10, the figures for the % activity in vitro in assay [1] and in assay [2] were 97.5% and 16.7%, respectively.

B11: DP8Mut3KA14: B^1(H5,10Y16L17R29)30-C^1des9-12-A^1(H8,K14,N18,21) (ligand)
chain: B10 chain with R51K
With B11, the % activity in vitro came to 132% in assay [1] and 12.6% in assay [2].

B12: MIU-79 di-10K-SC: B1,A14-10K B^1(H5,10Y16L17R29)30-C^1des9-12-A^1(H8,K14,N18,21) (ligand)
chain: {PEG 10 kDa}-GPEHLCGAHLVDALYLVCGDRGFYFNKRTGYGSSSRRGIVDECCHRSCDLK(PEG 10 kDa)RLENYCN
modifications: ends and bridges not checked
With B12, the % activity in vitro in assay [1] is 1.7%; in assay [2], 0.2%.

B13: MIU-78 mono-20K-TC: B1-20K B^1(H5,10Y16L17K29)29:A^1(H8N18,21) (ligand)
chain 1: GPEHLCGAHLVDALYLVCGDRGFYFNKK
chain 2: GIVDECCHRSCDLRRLENYCN
For the molecule B13, the results for the % activity in vitro with type A insulin receptor and with type B insulin receptor were 8.2% and 3.2%, respectively.

These data come from patent US20150274802A1.
